B1: BCL2L13 (parent)
chain: QSLDQEILLKVKTEIEEELKSLDK

Variants of: B1
Assay: protein stability index of a GFP-peptide fusion (GPS, HEK-293T) (PSI 1-6); higher = more stable
Conditions: c terminus: a fixed tail appended
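Further: lentivirally expressed fusions sorted by FACS into six bins by GFP to DsRed ratio, PSI derived from sequencing read proportions per bin multiplied by bin number.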

Protein stability index: each site, then its substitutions
D4: H 4.69, T 3.5, M 2.83
T13: A 3.97, C 3.28, V 3.58, M 3.65, Y 4.14, I 2.44, H 4.71
D23: G 4.41, L 2.2, M 2.33, F 2.14, C 3.42, I 3.3, P 4.85, N 4.04, A 2.63, T 4.47
E17: I 3.49, A 4.57, W 3.51, H 4.51, T 4.1, R 3.99, L 3.72, Q 4.56, Y 3.67, N 4.11, V 2.69
Q1: C 4.3, M 4.16, K 4.38, H 4.92, R 4.64, E 4.67, Y 3.69, I 3.44, G 4.67, N 4.98, W 3.55, S 4.54, F 3.89, L 3.7
E6: G 4.78, T 4.62, I 3.27, R 3.67, H 4.15, V 3.92, N 5.24, W 2.76, M 3.71, A 3.94, L 3.58
S2: C 4.09, K 4.24, P 4.71, F 4.24, Q 4.97, E 5.52, G 3.38, W 1.48, T 5.16, I 4.91, L 3.95, V 4.16
I7: S 5.69, F 4.64, K 5.51, T 4.27, D 5.68, G 5.33, A 5.66, Y 5.46, W 2.94, L 5.32, V 5.62, H 5.07
E14: R 3.85, W 2.47, Q 4.84, Y 3.16, L 2.82, H 4.26, I 2.92, M 3.7
L9: T 5.25, S 5.21, K 4.81, E 5.45, P 4.87, H 5.39, F 4.66, W 4.4, R 5.05, C 5
K24: Q 4.73, A 5.1, V 4.71, H 4.36, E 5.74, G 5.12, P 5.06, D 5.27, C 4.53, T 4.79, I 4.58, M 3.67, F 4.89, W 4.94, L 4.71
V11: R 5.33, E 5.63, W 5.5, L 3.5, P 5.61, H 4.56, C 4.77
L22: A 4.81, W 4.34, C 5.34, P 5.67, N 5.16, F 5.37, K 5.47, Q 5.3, I 4.49, T 5.13, Y 5.02, D 5.74
K12: Q 4.62, H 4.71, N 5.97, L 2.13, D 4.08, Y 4.27, T 4.73, G 5.65, A 4.94, P 5.38, F 3.15, R 4.77
L8: W 2.91, D 5.83, S 5.18, K 4.75, H 5.63, V 5.32, E 5.41, R 5.71, I 4.14, G 5.45, T 5.71, Y 3.76, F 5.14
E18: M 1.98, Y 2.17, I 2.58, T 3.92, C 3.41, L 3.06, N 4.4, Q 3.88, A 4.02, P 4.32

Reference: the supplement of paper PMC10567573
